In patent publication US9120851B2, “Human antibodies to human angiopoietin-like protein 4” (Regeneron Pharmaceuticals, Inc., priority 2009, dated 2015):

B1: H1H257P: anti-hANGPTL4 antibody, HCVR/LCVR SEQ ID NOs 18/20 (antibody, V domains shown)
VH: EVQLVESGGGLVQPGGSLRLSCAASGFTFSSYDMHWVRQVAGKGLEWVSAIGTAGDTYYPVSVKGRFTISRENAKNSLYLHMNSLRAGDTAVYFCARGDSRNYYVGDYFDYWGQGTLVTVSS
VL: DIQMTQSPSTLSASVGDRVTITCRASQSISRWLAWYQQKPGKAPKVLIYQASNLESGVPSRFSGSGSGTEFTLTISSLQPDDFATYYCQQYDSYSRAFGRGTKVEIK
B2: H1H236N2: anti-hANGPTL4 antibody, HCVR/LCVR SEQ ID NOs 458/394 (antibody, V domains shown)
VH: EVQLVESGGGLVQPGRSLRLSCAASGFTFDDYAMHWVRQAPGKGLEWVSGISWNSGSIVYADSVKGRFTISRDNAKNSLYLQMNSLISEDTALYYCAKDESSSSGNWFDPWGQGTLVTVSS
VL: EVVMTQSPATLSVSPGERATLSCRASQSVSSNLAWYQQKPGQAPRLLIYGASTRATGIPARFSGSGSGTEFTLTISSLQSEDFAVYYCQEYNNWITFGQGTRLEIK
B3: H1H624P: anti-hANGPTL4 antibody, HCVR/LCVR SEQ ID NOs 210/212 (antibody, V domains shown)
VH: EVQLVESGGGLVQPGGSLRLSCAASEFIFSSYAMNWVRQAPGKGLEWVSVISGSGDSKYYADSVKGRFTISRDNSKNTLYLQMNSLRVEDTAVYYCAKDGKDRYGFYYNFYGMDVWGQGTTVTVS
VL: DIQMTQSPSFLSASVGDRVTITCWASQGISSYLAWYQQKPGKAPKILIYAASTLQSGVPSRFSASGSGTEFTLTISSLQPEDFATYHCQQLNSYPFTFGPGTKVDIK
B4: H1H295P: anti-hANGPTL4 antibody, HCVR/LCVR SEQ ID NOs 186/188 (antibody, V domains shown)
VH: EVQLVESGGGLVQPGGSLRLSCAASGFTFSTYDMHWVRQAPGKGLEWVSAIGSAGDTYYPGSVKGRFTISRDNAKSSLFLQMNSLRAGDTALYYCARGDSRNYFVGDYFDYWGQGTLVTVSS
VL: DIQMTQSPSTLSASVGDRVTITCRASQSIGTWLAWYQQKPGKAPKILIYKASSLEGGVPSRFSGSGSGTEFTLTISSLQPDDFANYYCQQYNSFYRTFGQGTKVEIK
B5: H1H653P: anti-hANGPTL4 antibody, HCVR/LCVR SEQ ID NOs 306/308 (antibody, V domains shown)
VH: QVQLVESGGGVVQPGRSLRLSCVASGFTFSSYGMHWVRQAPGKGLEWMAVIWYDGSNKYFADSVKDRFTISRDNSKNTLYLQMNTLRPDDTAVYYCVKADAPLLIYGVDVWGQGTTVTVS
VL: DIQMTQSPSSLSASVGDRVTITCRASQGIRNDLGWYQEKPGKAPKRLIYFASSLQSGVPSRFSGSGSGTEFTLTISSLQPEDFATYYCLQHNSYPYTFGQGTKLEIK
B6: H1H285P: anti-hANGPTL4 antibody, HCVR/LCVR SEQ ID NOs 114/116 (antibody, V domains shown)
VH: EVQLVESGGGLVQPGGSLRLSCAASGFTFSRYDMHWVRQVTGKGLEWVSGIGTAGDTYYPGSVKGRFTISRENDKNSLYLQMNSLRVGDTAVYYCARGDSKNYYVGDYFDYWGQGTLVTVSS
VL: DIQMTQSPSTLSASVGDRVTFTCRASHSIGNWLAWYQQKPGKAPKVLIYEASSLEDGVPSRFSGSGSGTEFTLTISSLQPDDFATYYCQQYDTYFRTFGQGTKVEIK
B7: H1H292P: anti-hANGPTL4 antibody, HCVR/LCVR SEQ ID NOs 162/164 (antibody, V domains shown)
VH: EVQLVESGGGLVQPGGSLRLSCVASGFTFSSYDMHWVRQLPGKGLEWVSAIGVAGDTYYPASVKGRFTISRENAKNSLYLQMNSLRAGDTAVYYCARGDSGNYYDGDYFDFWGQGTLVTVSS
VL: DIQMTQSPSTLSASVGDRVTITCRASQSINRWLAWYQQKPGKAPKVLIYKASNLESGVPSRFSGSGSGTEFTLTISSLQPDDFATYYCQQYDSYFRTFGQGTKVEIK
B8: H1H638P: anti-hANGPTL4 antibody, HCVR/LCVR SEQ ID NOs 258/260 (antibody, V domains shown)
VH: EVQLVESGGGLVQPGGSLRLSCVASGFTFSSYDMHWVRQVAGKGLEWVAAIGTAGDTYYPVSVKGRFTISRENAKNSLSLHMNSLRAGDTAVYYCARGDSRNYYVGDYFDYWGQGTLVTVSS
VL: DIQMTQSPSTLSASVGDRVTITCRASQSISRWLAWYQQKPGKAPKVLIYKASSLKSGVPSRFSGSGSGTEFTLTISSLQSDDFATYYCQQYNSYSRTFGQGTKVEIK
B9: H1H291P: anti-hANGPTL4 antibody, HCVR/LCVR SEQ ID NOs 138/140 (antibody, V domains shown)
VH: EVQLVESGGGLVQPGGSLRLSCAASGFTFSTYDMHWVRQGLGKGLEWVSAIGSAGDTYYPGSVKGRFTISRDNAKSSLFLHMNSLRAGDTALYYCARGDSRNYFVGDYFDYWGQGTLVTVSS
VL: DIQMTQSPSTLSASIGDRVTITCRASQSISSWLAWYQQKPGKAPKVLIYKASSLEAGVPSRFSGSGSGTEFTLTISSLQPDDFASYYCQQYSSYSRTFGQGTKVEIK
B10: H1H283P: anti-hANGPTL4 antibody, HCVR/LCVR SEQ ID NOs 66/68 (antibody, V domains shown)
VH: EVQLVESGGGLVQPGGSLRLSCAASGFTFSSYDMHWVRQVAGKGLEWVSAIGTAGDTYYPVSVKGRFTISRENAKNSLYLHMNSLRAGDTAVYFCARGDSRNYYVGDYFDYWGQGTLVTVSS
VL: DIQMTQSPSTLSASVGDRVTITCRASQSISRWLAWYQQKPGKAPKVLIYKASNLESGVPSRFSGSGSGTEFTLTISSLQPDDFATYYCQQYNSYSRTFGQGTKVEIK

system: C57BL/6 mice given hANGPTL4-mFc; assay type: in vivo; conditions: antibody 5 mg/kg s.c.; 24 h later hANGPTL4-mFc 25 μg/mouse i.v.; bled 30 min after; mean±SEM
Description: In another set of experiments, selected anti-hANGPTL4 antibodies were tested for their ability to inhibit hANGPTL4-induced increase of triglyceride levels. Measurements of total cholesterol, LDL, NEFA-C and HDL were also made. Briefly, C57BL/6 mice were put into groups of five mice each for each antibody tested. Antibodies were administered at 5 mg/kg dose by subcutaneous injection. Control group I, i.e., mice that received neither anti-hANGPTL4 antibodies nor hANGPTL4, were administered with PBS. Twenty-four hours post-injection of antibody, hANGPTL4-mFc (SEQ ID NO:480) was administered (i.v.) at a dose of 25 μg/mouse to each antibody group. Mice were bled at 30 min after hANGPTL4-mFc injection and lipid levels were determined by ADVIA® 1650 Chemistry System (Siemens). Averages were calculated for each of the measurements of triglycerides, total cholesterol (Total-C), LDL, NEFA-C and HDL for each antibody or control group. Levels of circulating anti-hANGPTL4 antibodies (Serum Ab) were also determined using a standard ELISA assay. Briefly, plates were coated with a goat anti-human Fc antibody (Sigma-Aldrich) to capture Serum Ab. Serum was then added to the plates and captured anti-hANGPTL4 antibodies were detected by chemiluminescence using a horseradish peroxidase (HRP) conjugated goat anti-human IgG antibody (Sigma-Aldrich). Control I: Mice that received PBS, but neither anti-hANGPTL4 antibodies nor hANGPTL4-mFc. Control II: Mice that received a human antibody specific for CD20 (i.e., the mAb having the sequence of 2F2 clone disclosed in US 2008/0260641) and hANGPTL4-mFc.

In order of rising HDL:
1. B2  33.78 ± 1.13 mg/dL
2. B3  35.40 ± 2.68 mg/dL
3. B9  38.24 ± 2.14 mg/dL
4. B7  39.44 ± 1.68 mg/dL
5. B8  39.54 ± 1.65 mg/dL
6. B4  39.70 ± 3.13 mg/dL
7. B5  40.10 ± 2.72 mg/dL
8. B10  40.30 ± 0.72 mg/dL
9. B1  41.38 ± 3.24 mg/dL
10. B6  42.20 ± 0.91 mg/dL

In order of rising LDL:
1. B6  3.72 ± 0.44 mg/dL
2. B5  3.84 ± 0.32 mg/dL
3. B9  3.84 ± 0.12 mg/dL
4. B7  3.96 ± 0.15 mg/dL
5. B4  4.04 ± 0.40 mg/dL
6. B8  4.14 ± 0.18 mg/dL
7. B2  4.26 ± 0.25 mg/dL
8. B3  4.36 ± 0.92 mg/dL
9. B10  4.62 ± 0.39 mg/dL
10. B1  5.30 ± 0.36 mg/dL

In order of rising NEFA-C:
1. B3  0.86 ± 0.07 mg/dL
2. B1  0.97 ± 0.03 mg/dL
3. B6  0.97 ± 0.06 mg/dL
4. B5  1.04 ± 0.1 mg/dL
5. B7  1.06 ± 0.06 mg/dL
6. B8  1.06 ± 0.05 mg/dL
7. B2  1.11 ± 0.18 mg/dL
8. B9  1.11 ± 0.04 mg/dL
9. B4  1.12 ± 0.04 mg/dL
10. B10  1.13 ± 0.05 mg/dL

In order of falling Total-C:
1. B1  84.40 ± 3.53 mg/dL
2. B6  76.40 ± 1.75 mg/dL
3. B10  75.80 ± 1.53 mg/dL
4. B4  74.60 ± 4.82 mg/dL
5. B7  74.40 ± 2.11 mg/dL
6. B5  74.20 ± 4.49 mg/dL
7. B8  73.80 ± 2.78 mg/dL
8. B3  72.80 ± 5.49 mg/dL
9. B2  72.40 ± 1.81 mg/dL
10. B9  71.20 ± 3.26 mg/dL

In order of falling Triglycerides:
1. B2  151.80 ± 9.26 mg/dL
2. B1  115.80 ± 6.43 mg/dL
3. B10  113.60 ± 8.74 mg/dL
4. B9  111.00 ± 7.51 mg/dL
5. B4  104.80 ± 9.44 mg/dL
6. B8  102.80 ± 10.75 mg/dL
7. B6  91.40 ± 11.99 mg/dL
8. B5  88.00 ± 13.52 mg/dL
9. B7  85.80 ± 7.00 mg/dL
10. B3  81.20 ± 9.26 mg/dL
